Measurements from patent US20160053277A1, “Compositions Having Dicamba Decarboxylase Activity and Methods of Use” (PIONEER HI-BRED INTERNATIONAL, INC., priority 2013, published 2016).

Assay: Saturation mutagenesis of SEQ ID NO:109: dicamba decarboxylation activity of point mutants (carbon dioxide released)
[1] = dicamba decarboxylation activity of point mutants of SEQ ID NO: 109, relative to unchanged template
[2] = point mutation in SEQ ID NO: 109

| Molecule | Average Activity (Fold of SEQ ID NO: 109) [1] | Average Activity (Fold of SEQ ID NO: 109) [2] |
| --- | --- | --- |
| R212Q: point mutant of SEQ ID NO: 109 (protein, Dicamba decarboxylase variant clone: DC.4.032) MAQGKVALEEHFAIPETLQDSAGFVPGDYWKELQHRLLDIQDTRLKLMDAHGIETMILSLNAPAVQAIPDRRKAIEIARRANDVLAEECAKRPDRFLAFAALPLQDPDAATEELQRCVNDLGFVGALVNGFSQEGDGQTPLYYDLPQYRPFWGEVEKLDVPFYLHPRNPLPQDSRIYDGHPWLLGPTWAFAQETAVHALRLMASGLFDEHPQLNIILGHMGEGLPYMMWRIDHRVAWVKLPPRYPAKRRFMDYFNENFHITTSGNFRTQTLIDAILEIGADRILFSTDWPFENIDHASDWFNATSIAEADRVKIGRTNARRLFKLDGA | 1.7 Fold of SEQ ID NO: 109 | 1.7 Fold of SEQ ID NO: 109 |
| W229Y: point mutant of SEQ ID NO: 109 (protein, Dicamba decarboxylase variant clone: DC.4.032) MAQGKVALEEHFAIPETLQDSAGFVPGDYWKELQHRLLDIQDTRLKLMDAHGIETMILSLNAPAVQAIPDRRKAIEIARRANDVLAEECAKRPDRFLAFAALPLQDPDAATEELQRCVNDLGFVGALVNGFSQEGDGQTPLYYDLPQYRPFWGEVEKLDVPFYLHPRNPLPQDSRIYDGHPWLLGPTWAFAQETAVHALRLMASGLFDEHPRLNIILGHMGEGLPYMMYRIDHRVAWVKLPPRYPAKRRFMDYFNENFHITTSGNFRTQTLIDAILEIGADRILFSTDWPFENIDHASDWFNATSIAEADRVKIGRTNARRLFKLDGA | 1.7 Fold of SEQ ID NO: 109 | 1.7 Fold of SEQ ID NO: 109 |
| V235I: point mutant of SEQ ID NO: 109 (protein, Dicamba decarboxylase variant clone: DC.4.032) MAQGKVALEEHFAIPETLQDSAGFVPGDYWKELQHRLLDIQDTRLKLMDAHGIETMILSLNAPAVQAIPDRRKAIEIARRANDVLAEECAKRPDRFLAFAALPLQDPDAATEELQRCVNDLGFVGALVNGFSQEGDGQTPLYYDLPQYRPFWGEVEKLDVPFYLHPRNPLPQDSRIYDGHPWLLGPTWAFAQETAVHALRLMASGLFDEHPRLNIILGHMGEGLPYMMWRIDHRIAWVKLPPRYPAKRRFMDYFNENFHITTSGNFRTQTLIDAILEIGADRILFSTDWPFENIDHASDWFNATSIAEADRVKIGRTNARRLFKLDGA | 1.8 Fold of SEQ ID NO: 109 | 1.8 Fold of SEQ ID NO: 109 |
| L240E: point mutant of SEQ ID NO: 109 (protein, Dicamba decarboxylase variant clone: DC.4.032) MAQGKVALEEHFAIPETLQDSAGFVPGDYWKELQHRLLDIQDTRLKLMDAHGIETMILSLNAPAVQAIPDRRKAIEIARRANDVLAEECAKRPDRFLAFAALPLQDPDAATEELQRCVNDLGFVGALVNGFSQEGDGQTPLYYDLPQYRPFWGEVEKLDVPFYLHPRNPLPQDSRIYDGHPWLLGPTWAFAQETAVHALRLMASGLFDEHPRLNIILGHMGEGLPYMMWRIDHRVAWVKEPPRYPAKRRFMDYFNENFHITTSGNFRTQTLIDAILEIGADRILFSTDWPFENIDHASDWFNATSIAEADRVKIGRTNARRLFKLDGA | 2.1 Fold of SEQ ID NO: 109 | 2.1 Fold of SEQ ID NO: 109 |
| R243A: point mutant of SEQ ID NO: 109 (protein, Dicamba decarboxylase variant clone: DC.4.032) MAQGKVALEEHFAIPETLQDSAGFVPGDYWKELQHRLLDIQDTRLKLMDAHGIETMILSLNAPAVQAIPDRRKAIEIARRANDVLAEECAKRPDRFLAFAALPLQDPDAATEELQRCVNDLGFVGALVNGFSQEGDGQTPLYYDLPQYRPFWGEVEKLDVPFYLHPRNPLPQDSRIYDGHPWLLGPTWAFAQETAVHALRLMASGLFDEHPRLNIILGHMGEGLPYMMWRIDHRVAWVKLPPAYPAKRRFMDYFNENFHITTSGNFRTQTLIDAILEIGADRILFSTDWPFENIDHASDWFNATSIAEADRVKIGRTNARRLFKLDGA | 1.8 Fold of SEQ ID NO: 109 | 1.8 Fold of SEQ ID NO: 109 |
| N214Q: point mutant of SEQ ID NO: 109 (protein, Dicamba decarboxylase variant clone: DC.4.032) MAQGKVALEEHFAIPETLQDSAGFVPGDYWKELQHRLLDIQDTRLKLMDAHGIETMILSLNAPAVQAIPDRRKAIEIARRANDVLAEECAKRPDRFLAFAALPLQDPDAATEELQRCVNDLGFVGALVNGFSQEGDGQTPLYYDLPQYRPFWGEVEKLDVPFYLHPRNPLPQDSRIYDGHPWLLGPTWAFAQETAVHALRLMASGLFDEHPRLQIILGHMGEGLPYMMWRIDHRVAWVKLPPRYPAKRRFMDYFNENFHITTSGNFRTQTLIDAILEIGADRILFSTDWPFENIDHASDWFNATSIAEADRVKIGRTNARRLFKLDGA | 1.8 Fold of SEQ ID NO: 109 | 1.8 Fold of SEQ ID NO: 109 |
| L240A: point mutant of SEQ ID NO: 109 (protein, Dicamba decarboxylase variant clone: DC.4.032) MAQGKVALEEHFAIPETLQDSAGFVPGDYWKELQHRLLDIQDTRLKLMDAHGIETMILSLNAPAVQAIPDRRKAIEIARRANDVLAEECAKRPDRFLAFAALPLQDPDAATEELQRCVNDLGFVGALVNGFSQEGDGQTPLYYDLPQYRPFWGEVEKLDVPFYLHPRNPLPQDSRIYDGHPWLLGPTWAFAQETAVHALRLMASGLFDEHPRLNIILGHMGEGLPYMMWRIDHRVAWVKAPPRYPAKRRFMDYFNENFHITTSGNFRTQTLIDAILEIGADRILFSTDWPFENIDHASDWFNATSIAEADRVKIGRTNARRLFKLDGA | 2.3 Fold of SEQ ID NO: 109 |  |
| S298A: point mutant of SEQ ID NO: 109 (protein, Dicamba decarboxylase variant clone: DC.4.032) MAQGKVALEEHFAIPETLQDSAGFVPGDYWKELQHRLLDIQDTRLKLMDAHGIETMILSLNAPAVQAIPDRRKAIEIARRANDVLAEECAKRPDRFLAFAALPLQDPDAATEELQRCVNDLGFVGALVNGFSQEGDGQTPLYYDLPQYRPFWGEVEKLDVPFYLHPRNPLPQDSRIYDGHPWLLGPTWAFAQETAVHALRLMASGLFDEHPRLNIILGHMGEGLPYMMWRIDHRVAWVKLPPRYPAKRRFMDYFNENFHITTSGNFRTQTLIDAILEIGADRILFSTDWPFENIDHAADWFNATSIAEADRVKIGRTNARRLFKLDGA | 2.1 Fold of SEQ ID NO: 109 | 2.1 Fold of SEQ ID NO: 109 |
| E16A: point mutant of SEQ ID NO: 109 (protein, Dicamba decarboxylase variant clone: DC.4.032) MAQGKVALEEHFAIPATLQDSAGFVPGDYWKELQHRLLDIQDTRLKLMDAHGIETMILSLNAPAVQAIPDRRKAIEIARRANDVLAEECAKRPDRFLAFAALPLQDPDAATEELQRCVNDLGFVGALVNGFSQEGDGQTPLYYDLPQYRPFWGEVEKLDVPFYLHPRNPLPQDSRIYDGHPWLLGPTWAFAQETAVHALRLMASGLFDEHPRLNIILGHMGEGLPYMMWRIDHRVAWVKLPPRYPAKRRFMDYFNENFHITTSGNFRTQTLIDAILEIGADRILFSTDWPFENIDHASDWFNATSIAEADRVKIGRTNARRLFKLDGA | 1.8 Fold of SEQ ID NO: 109 |  |
| S298T: point mutant of SEQ ID NO: 109 (protein, Dicamba decarboxylase variant clone: DC.4.032) MAQGKVALEEHFAIPETLQDSAGFVPGDYWKELQHRLLDIQDTRLKLMDAHGIETMILSLNAPAVQAIPDRRKAIEIARRANDVLAEECAKRPDRFLAFAALPLQDPDAATEELQRCVNDLGFVGALVNGFSQEGDGQTPLYYDLPQYRPFWGEVEKLDVPFYLHPRNPLPQDSRIYDGHPWLLGPTWAFAQETAVHALRLMASGLFDEHPRLNIILGHMGEGLPYMMWRIDHRVAWVKLPPRYPAKRRFMDYFNENFHITTSGNFRTQTLIDAILEIGADRILFSTDWPFENIDHATDWFNATSIAEADRVKIGRTNARRLFKLDGA | 2.3 Fold of SEQ ID NO: 109 |  |
| L240D: point mutant of SEQ ID NO: 109 (protein, Dicamba decarboxylase variant clone: DC.4.032) MAQGKVALEEHFAIPETLQDSAGFVPGDYWKELQHRLLDIQDTRLKLMDAHGIETMILSLNAPAVQAIPDRRKAIEIARRANDVLAEECAKRPDRFLAFAALPLQDPDAATEELQRCVNDLGFVGALVNGFSQEGDGQTPLYYDLPQYRPFWGEVEKLDVPFYLHPRNPLPQDSRIYDGHPWLLGPTWAFAQETAVHALRLMASGLFDEHPRLNIILGHMGEGLPYMMWRIDHRVAWVKDPPRYPAKRRFMDYFNENFHITTSGNFRTQTLIDAILEIGADRILFSTDWPFENIDHASDWFNATSIAEADRVKIGRTNARRLFKLDGA | 2.2 Fold of SEQ ID NO: 109 |  |
| K239H: point mutant of SEQ ID NO: 109 (protein, Dicamba decarboxylase variant clone: DC.4.032) MAQGKVALEEHFAIPETLQDSAGFVPGDYWKELQHRLLDIQDTRLKLMDAHGIETMILSLNAPAVQAIPDRRKAIEIARRANDVLAEECAKRPDRFLAFAALPLQDPDAATEELQRCVNDLGFVGALVNGFSQEGDGQTPLYYDLPQYRPFWGEVEKLDVPFYLHPRNPLPQDSRIYDGHPWLLGPTWAFAQETAVHALRLMASGLFDEHPRLNIILGHMGEGLPYMMWRIDHRVAWVHLPPRYPAKRRFMDYFNENFHITTSGNFRTQTLIDAILEIGADRILFSTDWPFENIDHASDWFNATSIAEADRVKIGRTNARRLFKLDGA | 1.8 Fold of SEQ ID NO: 109 | 1.8 Fold of SEQ ID NO: 109 |
